# Assay results published in the DeepSol protein solubility set.
# Assay: soluble on expression in E. coli; label from the status in PepcDB or PDB records
row,Sequence,soluble on expression in E. coli
1,MGSDKIHHHHHHMANFKVGCGKAMIQFSASELPIREFKSKLDDLYCRVMLISGKNSWALISFDLTSLRAAAIKRYQELAARLLAIDSNQIWVTVTHTFAAPHLPSTTDSMARKSAYRLIDEKLKESLMLACRQAHEDLQAVQVGQVNINCPLNVNRNVLTKQGWWLGRNLEGYSNHQLRVLAFRKADKTTNLLVNYDIQQSVLDHVTDDHGEQMISSDLMGNGIKAYEGNDRVAIFIPGCAGDQRPLFTGKANQPFAVNKALLANQATIVTEKLEWAVQNVHDWQPLRQLRSSQLPVIVPTQVQQRSTFEIKPTKTYDFQSTKQTTTLHLWALRLNQYEIVGTEPELNSSFGDSCRQALAGNTNTMIATLVNGAAKYLPEQIDFERITYQSMNTQLGLTADQCMLEACVQLRQKISEEEY,not soluble
2,GHMIMANWQSIDELQDIASDLPRFIHALDELSRRLGLNITPLTADHISLRCHQNATAERWRRGFEQCGELLSENMINGRPICLFKLHEPVQVAHWQFSIVELPWPGEKRYPHEGWEHIEIVLPGDPETLNARALALLSDEGLSLPGISVKTSSPKGEHERLPNPTLAVTDGKTTIKFHPWSIEEIVASEQSA,soluble
3,MIQDVIEKKLSDEFQPEFLKVINESDMHNVPRGSESHFKVTVVSERFAGLRPVARHRLVNQTLADELANHIHALAIHTYTTQEWQQMNQESPESPMCLGGSRKSAQ,not soluble
4,MFAMTSIAVIGGGKIGEALISGLVASGMSPKDIHVTNRNAERAQELKERYGVLTFLENIAAVDDVDMVFLCVKPQQVIPVVEEIADVVDNNTSTTIVSMAAGVTNAMIEESLAAGSPVIRVMPNTPMLVGKGMSVVAPGRYADEDTVASLTQLLEAVGSVEVIEESSMDAVVALSGSSPAYLFLMVEALIDAGVFLGLPRDKAKNLAVSSFAGAATMLEQTGEEPAVLRANVSSPGGTTIAAIREFEESGLRAAVYRAATAAATRNSSLG,not soluble
5,MGSDKIHHHHHHMTITTQSLPVVRRHTIHFLEKAKNSQAVYLSTDIDASRIQEVKRRYEQASIKISYISFLLFAISRAIEVFPEVNSSVQGRWHLKRWQFSTIDAKVTLDKLAGQERMVVSSVIPETNKKSLLAIQDEINELKIASFETSDRFQSIRKLQRLPLWIGRIIYRKILQNPITWQQTQGSFTITSLGHVPIQSFFPITTNTVCFGVGSIRECAVVREGQVVVRPMLPLSMTFDHRAIDGALASEFLYRIKQNVEEWEVEAWEDDQKNQAMM,not soluble
6,MQLNDSTLFRQQAFIDGDWRDARGGDVIPVSNPANGKPLGNVPKMGAEETRDAINAANRALPAWRALTAKERANILRRWFNLMMEHQDDLARLMTLEQGKPLAEAKGEISYAASFIEWFAEEGKRIYGDTIPGHQADKRLLVIKQPIGVTAAITPWNFPSAMITRKAGPALAAGCTMVLKPASQTPFSALALAELAQRAGIPAGVFNVVTGSAGDIGGELTSNPLVRKLSFTGSTEIGRQLMEQCAKDIKKVSLELGGNAPFIVFDDADLDKAVEGALASKFRNAGQTCVCANRLYVQDGVYDRFAEKLNQAVNKLAVGDGLQADVAIGPLIDEKAVAKVQEHIADALEKGARVITGGEAHKLGGNFFQPTILADVPDNAKVAKEETFGPLAPLFRFSDEADVIRQANDTEFGLAAYFYARDLSRVFRVGEALEYGIVGINTGIISNEVAPFGGIKASGLGREGSKYGIEDYLEIKYMCIGL,not soluble
7,MKDWLDEIHWNADGLVPAIAQDHETGRVLMMAWMNREALALTASENRAIYWSRSRGKLWRKGEESGHVQKLHELRLDCDADVVILMVEQVGGIACHTGRESCFYRVFENGAWKTVDPVLKDPDAIYEHAGHHHE,not soluble
8,GPGSMTRRNAMSDNTTSTSSVTPERYPFCIVWTDIPLVSWLFPFVGHVGICDSTGRIFDFEGSYCIGVDHMLFGNPVKYWDISAMYVPSSRFPPGGLLSGDVEERRRRETEEYDRALSGVTTRFRKTQTYNFFTNNCHSYVASVLEEMTNGPRRPWNMFWIAWGLAIHGRSLLKSPSSLPRYRRPLCDRRCTLGLTRSK,not soluble
9,MFILKDVTYKDILHIPYLQIQKEKITCIIGESGSGKSTLLRMLNDLQSPTSGIIEYNGKLISDYPPIQLRRDVVMLGQTPPIFDGTIKDNLLMGLRLSEKPFPNDDILRSALKTISLEKNLEDNADSLSGGEKQRLAFARIVLMDPPVYLLDEPTSALDSDTERRVMKQFTTLAREKKKTVIFITHSQQLPEEIADDIIEISKANGATRKEVLSVEGRY,not soluble
10,VVVEDSGASFGESLLDTTSEPGKILVKRISGGSGITVTDYGDQVEIEASVTDALSLMYSTSTGGPASIAANALTDFDLSGALTVNSVGTGLTKSAAGIQLAAGKSGLYQITMTVKNNTVTTGNYLLRVKYGSSDFVVACPASSLTAGGTISLLIYCNVLGVVSLDVLKFSLCNDGAALSNYIINITAAKIN,soluble
11,MGSDKIHHHHHHMKLVDSIYGTYTVEPVISELIDSAPVQRLKGIHQGGACYIVKPSWNVTRFEHSIGVMLLIRKLGGSLEEQIAGLLHDVSHTAFSHVIDYVLAEEEEDYHEQIYEQVIRASEIPHILDKYGFDLERIVLNHSCWTLLEQPSPSLCADRIDYTLRDLYTYGHINKQEVDDFIANLIVVDGIISTSSVAGAEWFVRAYYKEVIDFFLDPLNVYGSSVLTSVLKSAVERKALGLDDFLKTDEELMEQLQRLNDDSIQKQLATLHPHVNVRENENHYHIHKTNKLRLIDPHVYLDGTFQRISSLSKQVKKWNEEAQRRADRGAYVEVLSS,not soluble
12,MGSDKIHHHHHHMDFDMIEEKKDSVIVRNVENFELKDIFDCGQCFRWHRQENGNYIGIAFEKVVEVQKIGEDVVIYNINEEEFKNVWSEYFDLYRDYGEIKKELSRDPLLKKSVDFGEGIRILRQDPFEILLSFIISANNRIPMIKKCINNISEKAGKKLEYKGKIYYAFPTVDKLHEFTEKDFEECTAGFRAKYLKDTVDRIYNGELNLEYIKSLNDNECHEELKKFMGVGPKVADCIMLFSMQKYSAFPVDTWVKKAMMSLYVAPDVSLKKIRDFGREKFGSLSGFAQQYLFYYARENNIQL,not soluble
13,MARIAGVEIPRNKRVDVALTYIYGIGKARAKEALEKTGINPATRVKDLTEAEVVRLREYVENTWKLEGELRAEVAANIKRLMDIGCYRGLRHRRGLPVRGQRTRTNARTRKGPRKTVAGKKKAPRK,soluble
14,MKRIRLWGLMAGLLLLLVGCGRAETTGVTKPVTTQGHRYIPTLFFHGWGSSYHAETHMADAIVKAGKTQTIVRAMVAKNGTVTLKGHFRSGDYRPIVEVNFANNRSSDYPTVGRWAKNVVVALQRTYGITSFNMVGHSMGNMAITYYLLANAQNKRLPQLRQQVAIAGHFNGILGMDDSPNQMTLNAAGRPNKLRPAYRQLLGLRRVYPRQQVRVLNIYGDKGDGTHSDGSVSNASSRSLRYLVAARARSYREVKLTGKHAQHSQLHENAQVDRLLIDFLWPTH,not soluble
15,MPEDVKNFYLMTNGFHMTWSVKLDEHIIPLGSMAINSISKLTQLTQSSMYSLPNAPTLADLEDDTHEASDDQPEKPHFDSRSVIFELDSCNGSGKVCLVYKSGKPALAEDTEIWFLDRALYWHFLTDTFTAYYRLLITHLGLPQWQYAFTSYGISPQAKVREEHLPL,not soluble
16,MPLPSFLEVYEGLISTSSISSTDARWDEGNEQVIAKLADWLSALGFSIQIEQVAPNKQNLIAKLGSGEGGLLLAGHSDTVPFDEGRWNYNPHALTQVNNRFYGLGTADMKGFFAFIYEAVKNVDWSKQTKPLYVLATCDEETTMLGARHFTENAPFKPDYCIIGEPTSLVPIRAHKGHVANAIRVTGKSGHSSNPALGVNAIEIMHEVLFALMQLRDRLIKEYHHPGFEIPTPTLNLGHIHGGDSPNRICGCCELHYDVRPLPGISLDGLDNLMHDALREVQQKWPGRIELVPLHDPIPGYECAHDHPFIHGISEICEQEAQTVNYCTEAPFLQQVCPTLVLGPGSIDQAHQPDEFLAFEFIDPTVRVLSRAMQKYCF,soluble
17,MTHPFEPFFDKDSKILILGSFPSIKSRQDGFYYQHPRNRFWPILETLFNAKLENITEQQAFLRKKHIALWDVLQSCKIKNSDDKTISYAKANDLNLILSQTKIQAIFTTGQSAYRFFVKFHPRLEAIALPSTSPANLNFSFEQLLQNYEIIKKFTKLEHHHHHH,not soluble
18,MGSDKIHHHHHHVVVMSKVLLNIGCADVDKPGYINVDARKTKVTHLVSNAWDLDCFEENSVHEIYSRHMLEHLNPEYAKLALQKWFYILEPEGKLVVIVPDIEFHARQLLGVSRSSFGDQMEHAFAGFWGWREKERGGSDFDAHQWGYTVATLENEIGAVGFERIERVVEGVDSEPWHLQMTARKPMTSLCCPMDFRGPFP,not soluble
19,MIALHFGAGNIGRGFIGALLHHSGYDVVFADVNETMVSLLNEKKEYTVELAEEGRSSEIIGPVSAINSGSQTEELYRLMNEAALITTAVGPNVLKLIAPSIAEGLRRRNTANTLNIIACENMIGGSSFLKKEIYSHLTEAEQKSVSETLGFPNSAVDRIVPIQHHEDPLKVSVEPFFEWVIDESGFKGKTPVINGALFVDDLTPYIERKLFTVNTGHAVTAYVGYQRGLKTVKEAIDHPEIRRVVHSALLETGDYLVKSYGFKQTEHEQYIKNQRSLLKSFHFGRCDPRSEVTSQKTGRKCRLVGPAKKIKEPNALAEGIAAALRFDFTGDPEAVELQALIEEKDTAAYFK,not soluble
20,MTNPLLTPFELPPFSKILPEHVVPAVTKALNDCRENVERVVAQGAPYTWENLCQPLAEVDDVLGRIFSPVSHLNSVKNSPELREAYEQTLPLLSEYSTWVGQHEGLYKAYRDLRDGDHYATLNTAQKKAVDNALRDFELSGIGLPKEKQQRYGEIATRLSELGNQYSNNVLDATMGWTKLVTDEAELAGMPESALAAAKAQAEAKELEGYLLTLDIPSYLPVMTYCDNQALREEMYRAYSTRASDQGPNAGKWDNSKVMEEILALRHELAQLLGFENYAFKSLATKMAENPQQVLDFLTDLAKRARPQGEKELAQLRAFAKAEFGVDELQPWDIAYYSEKQKQHLYSISDEQLRPYFPENKAVNGLFEVVKRIYGITAKERKDVDVWHPDVRFFELYDENNELRGSFYLDLYARENKRGGAWMDDCVGQMRKADGSLQKPVAYLTCNFNRPVNGKPALFTHDEVITLFHEFGHGLHHMLTRIETAGVSGISGVPWDAVELPSQFMENWCWEPEALAFISGHYETGEPLPKELLDKMLAAKNYQAALFILRQLEFGLFDFRLHAEFRPDQGAKILETLAEIKKLVAVVPSPSWGRFPHAFSHIFAGGYAAGYYSYLWADVLAADAFSRFEEEGIFNRETGQSFLDNILSRGGSEEPMDLFKRFRGREPQLDAMLEHYGIKG,soluble
21,SATGTPESQARFGQSVKGLLTEKVTTCGTDVIALTKQVLKGSRSSELLGQAARNMVLQEDAILHSEDSLRKMAIITTHLQYQQEAIQKNVEQSSDLQDQLNHLLK,soluble
22,MRYHGGLLLGAFDDDGKIIGMSFGYPGFRNGKLYLYSHMAGVVENKKYSNVGYSLKMKQRDLAASMGYDLIAWTFDPFNPLNAYFNISKLGAITRTYIKNFYGVMNDGINRGMRTDRVVAEWWINLQIDRNCEIIDFLNDVDRYSEISTIHESSCLGFYVPPDISYFHKYPDLGSKLKDAAFEVFNALFSKGYAIVAYKRGKSNYFVFKRIENLGKRIFDPIVK,not soluble
23,DFELLHKLGGGNYGDVHLASVKDCNFVCALKRLSIKKLADFDIATQLRREIEIAFNTRHKYLLRTYAYFFDETDIYLIMEPCSNGMLYTELNRVKCFAPPTAARYVAQLAEALLYLHQHHILHRDIKPENILLDHNNNIKLADFGWSVHDPDNRRKTSCGTPEYFPPEIVGRQAYDTSADLWCLGIFCYELLVGKTPFVGKDTDQICKNIHSMHFKIPENIPSEAKDLIANLLLRDGSRRLALHRVVNHQFLLKYYYLPNNL,soluble
